# Values quoted from earlier work as cited in PMC3039521.
# Molecular target: Abl P-x-L-P-x-K motif (UniProt P00519)
substance,measurement,value
Crk SH3N (from UniProt P46108),Kd,1000 nM
